The target in the assay is recombinant full-length delta PKC (rat). As to the kind of experiment: ELISA, both in the absence and in the presence of calcium. On the technique in general: In an ELISA, binding on a coated surface is turned into a signal by an enzyme label.

B1: annexin I (protein)
chain: AMVSEFLKQAWFIENEEQEYVQTVKSSKGGPGSAVSPYPTFNPSSDVAALHKAIMVKGVDEATIIDILTKRNNAQRQQIKAAYLQETGKPLDETLKKALTGHLEEVVLALLKTPAQFDADELRAAMKGLGTDEDTLIEILASRTNKEIRDINRVYREELKRDLAKDITSDTSGDFRNALLSLAKGDRSEDFGVNEDLADSDARALYEAGERRKGTDVNVFNTILTTRSYPQLRRVFQKYTKYSKHDMNKVLDLELKGDIEKCLTAIVKCATSKPAFFAEKLHQAMKGVGTRHKALIRIMVSRSEIDMNDIKAFYQKMYGISLCQAILDETKGDYEKILVALCGGN
Turning to B1, the percent binding is 70%.

These data come from patent US20090155236A1, “Peptide sequence for modulation of delta protein kinase c” (NATIONAL INSTITUES OF HEALTH (NIH), U.S. DEPT OF HEALTH AND …, priority 2004, published 2009).
